Test results taken from patent US20220356246A1 (published 2022).
Numbering of substitutions follows the chain as printed.

B1: anti-ROR1 antibody clone G6 (antibody, V domains shown)
VH: EVQLVESGGGVVQPGGSLRLSCAASGFTFDDYAMHWVRQAPGKGLEWVSLISGDGGSTYYADSVKGRFTISRDNAKNSLYLQMNSLRAEDTAVYYCARDNWNDVYYYYGMDVWGQGTTVTVSS
VL: DIQLTQSPSSLSASIGDTVTISCQASRDISDYLNWYQHKPGKAPKLLIYDASNLATGVPSRFSGSGSGTDFTLTIKSLQPEDVATYFCQQDDLLPLTFGGGTKVDIK
B2: anti-ROR1 antibody clone G3 (antibody, V domains shown)
VH: QVQLQQWGAGLLKPSETLSLTCAVYGGSFSGYYWSWIRQPPGKGLEWIGEINHSGSTSYNPSLKSRVTISVDTSKNQFSLKLSSVTAADTAVYYCARGHSSGWYRRYFDLWGRGTLVTVSS
VL: EIVLTQSPATLSLSPGERATLSCRASQSVSSYLAWYQQKPGQAPRLLIYDASNRATGIPAKFSGSGSGTDFTLTISSLEPEDFAVYYCQQRSNWPPTFGGGTKVEIK
B3: anti-ROR1 antibody clone C3 (antibody, V domains shown)
VH: QVQLQESGPGLVKPSETLSLTCTVSGGSISSYYWSWIRQLPGKGLEWIGYMHYSGSTSYNPSLKGRLTISVDTSTNQFSLKLGSVTAADTAVYYCARYYYHDSSGYYSYFDYWGQGTLVTVSS
VL: B2 VL with A9G, P40A, T56S, K61R

Target: Human ROR1-ECD (human, UniProt Q01973 30-406)
Assay: BLI (Fortebio)

Chain of Human ROR1-ECD (Q01973 30-406): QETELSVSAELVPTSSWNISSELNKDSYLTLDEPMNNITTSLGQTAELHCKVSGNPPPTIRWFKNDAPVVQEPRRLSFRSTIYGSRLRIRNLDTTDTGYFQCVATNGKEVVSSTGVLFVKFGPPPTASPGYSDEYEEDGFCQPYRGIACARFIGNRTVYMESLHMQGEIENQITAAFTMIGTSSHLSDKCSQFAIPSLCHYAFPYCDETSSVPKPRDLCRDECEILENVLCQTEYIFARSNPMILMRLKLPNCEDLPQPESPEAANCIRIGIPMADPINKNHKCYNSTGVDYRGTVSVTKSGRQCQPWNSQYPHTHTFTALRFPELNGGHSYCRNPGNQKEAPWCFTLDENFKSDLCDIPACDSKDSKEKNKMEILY

Binder | Kd [nM]
B1 | 43.7
B2 | 4.48
B3 | 3.25
